Test results reported in article doi:10.1101/2020.09.21.306357.

Target: ACE2-Fc (soluble human ACE2 fused to human IgG Fc) (human) (UniProt Q9BYF1)
Experiment: BLI

Chain of ACE2-Fc (soluble human ACE2 fused to human IgG Fc) (human) (Q9BYF1 18-738): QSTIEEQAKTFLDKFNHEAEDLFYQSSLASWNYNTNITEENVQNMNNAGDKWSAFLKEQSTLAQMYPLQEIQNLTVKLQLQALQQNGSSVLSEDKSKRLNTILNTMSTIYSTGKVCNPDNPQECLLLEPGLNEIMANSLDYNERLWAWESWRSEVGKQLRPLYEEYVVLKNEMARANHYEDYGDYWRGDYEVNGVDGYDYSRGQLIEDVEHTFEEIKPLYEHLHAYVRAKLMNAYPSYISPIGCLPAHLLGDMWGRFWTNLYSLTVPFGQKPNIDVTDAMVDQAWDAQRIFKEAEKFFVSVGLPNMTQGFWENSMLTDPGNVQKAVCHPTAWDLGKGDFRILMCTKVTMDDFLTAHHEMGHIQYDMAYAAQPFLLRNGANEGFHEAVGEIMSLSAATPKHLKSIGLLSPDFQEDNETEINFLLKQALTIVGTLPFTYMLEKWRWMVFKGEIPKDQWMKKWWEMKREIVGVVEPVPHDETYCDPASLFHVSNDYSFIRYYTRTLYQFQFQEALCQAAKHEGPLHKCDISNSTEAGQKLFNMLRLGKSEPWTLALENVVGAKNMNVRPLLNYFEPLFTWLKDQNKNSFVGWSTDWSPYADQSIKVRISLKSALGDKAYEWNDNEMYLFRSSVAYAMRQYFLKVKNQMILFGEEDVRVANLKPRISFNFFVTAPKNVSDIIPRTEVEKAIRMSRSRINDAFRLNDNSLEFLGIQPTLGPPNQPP

Substance: SARS-CoV-1 S-Trimer (wild-type SARS-CoV S ectodomain fused to Trimer-Tag) (from UniProt P59594 14-1193) (domain or fragment)
- Kd: 1.2 nM
